Data reported in publication PMC6389942.

Target: HA-Cep57 (centrosomal protein of 57 kDa, full length), Q86XR8-1
Assay: co-IP (FLAG IP, HA-Cep57 western blot band quantification)
Conditions: HEK293T cells; three independent experiments; parent: est. 1.0; read off a plot

Sequence of HA-Cep57 (centrosomal protein of 57 kDa, full length), Q86XR8-1 (Q86XR8 whole entry): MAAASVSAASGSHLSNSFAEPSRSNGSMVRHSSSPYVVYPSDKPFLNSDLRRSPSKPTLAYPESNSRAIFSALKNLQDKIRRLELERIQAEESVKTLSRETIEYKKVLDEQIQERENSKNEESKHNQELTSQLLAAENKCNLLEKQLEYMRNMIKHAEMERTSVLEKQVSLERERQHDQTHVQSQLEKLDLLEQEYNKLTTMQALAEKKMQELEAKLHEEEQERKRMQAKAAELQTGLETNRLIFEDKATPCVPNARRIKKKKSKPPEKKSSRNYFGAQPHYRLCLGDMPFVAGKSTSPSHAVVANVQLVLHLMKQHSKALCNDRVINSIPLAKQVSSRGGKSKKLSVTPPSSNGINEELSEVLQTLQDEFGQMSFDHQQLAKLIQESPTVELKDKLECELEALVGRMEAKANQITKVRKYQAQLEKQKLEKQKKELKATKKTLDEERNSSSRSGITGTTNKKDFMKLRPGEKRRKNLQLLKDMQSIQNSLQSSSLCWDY

FLAG-PCNT 2536–3336 WT K3154del
response: 0.11
